The target in this data set is tau 2N4R wild type (tau-441) (human, UniProt P10636-8 1-441). The data set can be described thus: EMSA.

B1: 24-bp duplex (dsDNA)
DNA 1: TCGACACGGAAATGTTGAATACTA
DNA 2: TAGTATTCAACATTTCCGTGTCGA
On to B1, for which the binding result was “binds”.

The values are drawn from publication doi:10.1101/2024.09.24.614852.
